Measured values published in US20160272690A1.
Bridges are numbered along the chain shown (N, C = ends). Where no end group is shown, it is not given here. [ ]: non-standard residue; d: D form. hCys = N[C@@H](CCS)C(=O)O; Orn = NCCC[C@H](N)C(=O)O; Dab = NCC[C@H](N)C(=O)O

Biological target: TEAD
Experiment: IC50 for TEAD binding (TR-FRET test)

Chain of TEAD (P28347 209-426): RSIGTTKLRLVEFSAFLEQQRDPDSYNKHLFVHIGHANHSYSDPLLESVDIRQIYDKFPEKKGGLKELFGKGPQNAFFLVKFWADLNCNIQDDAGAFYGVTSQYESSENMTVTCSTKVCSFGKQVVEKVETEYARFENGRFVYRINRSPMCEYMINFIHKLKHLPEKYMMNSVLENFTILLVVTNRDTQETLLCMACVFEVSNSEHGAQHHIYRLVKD

IC50 [nM]	Binder
28	VPF[hCys]LR[Dab]LPDSFCKPPE (disulfide 4-13) [polypeptide represented by SEQ ID NO.: 6]
43	VPF[hCys]LR[Orn]LPDSFCKPPE (disulfide 4-13) [polypeptide represented by SEQ ID NO.: 5]
